In US20100092489A1 (Genmab, published 2010):

Assays:
[1] = molecular target: T1, human CD38 expressed on cells (CHO-CD38, Daudi-luc, fresh multiple myeloma tumor cells) (human, UniProt P28907 1-300); assay: cell-based or functional assay
[2] = molecular target: T1, human CD38 expressed on cells …; assay: cell-based or functional assay; remark: listed apart in the source
[3] = molecular target: T1, human CD38 expressed on cells …; assay: cell-based or functional assay; remark: listed apart in the source
[4] = molecular target: T1, human CD38 expressed on cells …; assay: cell-based or functional assay; remark: listed apart in the source
[5] = molecular target: T1, human CD38 expressed on cells …; assay: flow cytometry on CHO-CD38 cells, rabbit anti-human IgG-FITC
Description: (§1) After harvesting and counting, Daudi-luc cells, CHO cells transfected with CD38 and control CHO cells were resuspended in PBS (1×10⁶ cells/ml). Then, cells were put in 96-well V-bottom plates (100 μl/well) and washed twice in PBS-BSA (PBS supplemented with 0.1% BSA and 0.02% Na-azide). Thereafter, 50 μl antibody solution in PBS-BSA was added to the cells (4° C., 30 min). After washing three times in PBS-BSA, 50 μl (1:400 dilution) of rabbit anti-human IgG-FITC in PBS-BSA was added (4° C. in the dark, 30 min). Cells were washed three times and specific binding of CD38-antibodies to CHO-CD38 and Daudi-luc cells was detected by flow cytometry.

[6] = molecular target: T1, human CD38 expressed on cells …; assay: flow cytometry on Daudi-luc cells, rabbit anti-human IgG-FITC
Description: as §1

[7] = molecular target: T1, human CD38 expressed on cells …; assay: flow cytometry on fresh MM tumor cells, FITC-labeled antibody
[8] = molecular target: T2, HA-CD38 (HA-tagged extracellular domain of human CD38, wild type) (human, UniProt P28907 43-300); assay: SPR, Biacore 3000, 25° C., antibody immobilized on CM-5 chip, HA-tagged CD38 flowed over; mean of 3 experiments ± SD
T2 construct: The signal peptide SPHMM of the construct is not part of the secreted protein; also called HA-tagged CD38; wt human CD38; not shown: N-terminal HA-tag introduced by PCR primer cd38forha

B1: antibody -003 (antibody, human IgG1, V domains shown)
VH: not shown
VL: DIQMTQSPSSLSASVGDRVTITCRASQGISSWLAWYQQKPEKAPKSLIYAASSLQSGVPSRFSGSGSGTDFTLTISSLQPEDFATYYCQQYNSYPRTFGQGTKVEIK
notes: Human monoclonal IgG1 antibody; Recombinant form made with human IgG1 heavy chain constant region (pConG1f0.4) and kappa light chain constant region (pConKappa0.4); FITC-labelled in some assays; also called HuMab -003; -003-2F5
With B1 as the binder, how does the “EC50 Daudi-luc, ADCC (51Cr release)” value [1] read?
Its value is 0.009 µg/mL.

And the “EC50 MM cells, ADCC (51Cr release)” value [1]?
The value was 0.027 µg/mL.

What about the “EC50 CD38-CHO, CDC” value [2] of the same binder?
The value was 3.14 µg/mL.

And the “EC50 Daudi-luc, CDC” value [2]?
Its value is > 90 µg/mL.

What about the “EC50, CDC of CHO-CD38 cells (n = 2)” value [3] of the same binder?
Its value is 4.5 µg/mL.

And the “Log EC50, ADCC of Daudi target cells (n=5)” value [4]?
Its value is 1.17.

What about the EC50 [5] of the same binder?
The EC50 was 0.54 µg/mL.

What about the EC50 [6] of the same binder?
The EC50 was 0.26 µg/mL.

And the EC50 [7]?
Its EC50 is 0.56 µg/mL.

And the Ka [8]?
The Ka was 1.14e+09 M⁻¹.

What about the Kd [8] of the same binder?
The Kd was 0.885 nM.

B2: antibody -024 (antibody, human IgG1, V domains shown)
VH: EVQLVQSGAEVKKPGESLKISCKGSGYSFSNYWIGWVRQMPGKGLEWMGIIYPHDSDARYSPSFQGQVTFSADKSISTAYLQWSSLKASDTAMYYCARHVGWGSRYWYFDLWGRGTLVTVSS
VL: EIVLTQSPATLSLSPGERATLSCRASQSVSSYLAWYQQKPGQAPGLLIYDASNRASGIPARFSGSGSGTDFTLTISSLEPEDFAVYYCQQRSNWPLTFGGGTKVEIK
notes: Human monoclonal IgG1 antibody; Recombinant form made with human IgG1 heavy chain constant region (pConG1f0.4) and kappa light chain constant region (pConKappa0.4)
B2 was tested. Which “EC50 Daudi-luc, ADCC (51Cr release)” value [1] did it give?
Its value is 0.0097 µg/mL.

What about the “EC50 MM cells, ADCC (51Cr release)” value [1] of the same binder?
Its value is 0.056 µg/mL.

And the “EC50 CD38-CHO, CDC” value [2]?
Its value is 0.24 µg/mL.

And the “EC50 Daudi-luc, CDC” value [2]?
The value was > 90 µg/mL.

And the EC50 [5]?
The EC50 was 0.08 µg/mL.

What about the EC50 [6] of the same binder?
Its EC50 is 0.05 µg/mL.

What about the EC50 [7] of the same binder?
Its EC50 is 0.02 µg/mL.
